Data reported in article PMC10683472, “Deep Learning-Driven Library Design for the De Novo Discovery of Bioactive Thiopeptides” (ACS Central Science, 2023).

What was measured:
IRAK4 = target: T1, IRAK4 (Homo sapiens, UniProt Q9NWZ3); experiment: mRNA display affinity selection against IRAK4, NGS abundance; format: binding; parameters: acids 1-460; NP_057207.2) was purchased from Carna Biosciences; purchased Carna Biosciences (Kobe, Japan); details: Top100 selection hits, NGS
T1 sequence (Q9NWZ3 1-460): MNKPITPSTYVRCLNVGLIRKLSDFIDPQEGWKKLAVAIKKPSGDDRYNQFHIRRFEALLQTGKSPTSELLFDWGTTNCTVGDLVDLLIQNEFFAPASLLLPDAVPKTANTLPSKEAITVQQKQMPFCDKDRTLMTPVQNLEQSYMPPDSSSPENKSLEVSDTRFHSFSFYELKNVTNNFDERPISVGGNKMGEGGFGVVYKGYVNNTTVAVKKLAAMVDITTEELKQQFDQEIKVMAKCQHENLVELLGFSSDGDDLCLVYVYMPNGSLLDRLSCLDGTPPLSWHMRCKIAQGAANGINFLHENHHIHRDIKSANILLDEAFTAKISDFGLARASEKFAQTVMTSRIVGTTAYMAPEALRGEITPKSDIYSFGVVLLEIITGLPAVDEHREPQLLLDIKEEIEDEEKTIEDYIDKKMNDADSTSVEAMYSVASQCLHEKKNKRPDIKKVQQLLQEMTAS

TLR10 = target: T2, TLR10 (Homo sapiens, UniProt Q9BXR5); experiment: mRNA display affinity selection against TLR10, NGS abundance; format: binding; parameters: Chimera protein (extracellular domain, amino acid 20-576;); Fc (chimera); purchased R&D system #6619-TR-050; details: TLR10 selection pulldown (-); Top100 selection hits, NGS
T2 sequence (Q9BXR5 20-576): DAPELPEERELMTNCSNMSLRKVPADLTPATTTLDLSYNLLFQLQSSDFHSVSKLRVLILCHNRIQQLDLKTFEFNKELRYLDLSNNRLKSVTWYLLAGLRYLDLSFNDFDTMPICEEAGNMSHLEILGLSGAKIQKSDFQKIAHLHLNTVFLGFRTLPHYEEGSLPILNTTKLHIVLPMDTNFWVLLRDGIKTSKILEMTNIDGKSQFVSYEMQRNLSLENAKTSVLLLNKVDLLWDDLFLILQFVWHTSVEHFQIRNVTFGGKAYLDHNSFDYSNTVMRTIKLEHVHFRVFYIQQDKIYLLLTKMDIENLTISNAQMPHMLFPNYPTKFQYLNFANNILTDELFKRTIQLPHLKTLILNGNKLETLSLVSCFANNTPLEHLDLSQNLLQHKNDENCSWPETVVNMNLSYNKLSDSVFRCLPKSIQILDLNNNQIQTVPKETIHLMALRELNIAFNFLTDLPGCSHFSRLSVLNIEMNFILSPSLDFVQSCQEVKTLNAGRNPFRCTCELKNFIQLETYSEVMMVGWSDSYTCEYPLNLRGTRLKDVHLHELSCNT

| Sequence | Library fraction (IRAK4; IRAK4 selection pulldown (+)) | Raw reads (IRAK4; IRAK4 selection pulldown (+)) | Library fraction (IRAK4; IRAK4 selection pulldown (-)) | Raw reads (IRAK4; IRAK4 selection pulldown (-)) | Library fraction (TLR10) | Raw reads (TLR10) |
| --- | --- | --- | --- | --- | --- | --- |
| SVLWKKRVWQ | 0.003 | 318 | 0.00139 | 186 |  |  |
| SMKRQFITWHWT |  |  | 0.376 | 50248 |  |  |
| STRWKRRNYT | 0.0004 | 39 | 0.00016 | 22 |  |  |
| AMRWRNRCYK | 0.0001 | 14 |  |  |  |  |
| RQRWRGRKYH | 0.0001 | 8 | 0.00011 | 15 |  |  |
| SVLWKRRIWK | 0.033 | 3569 | 0.020 | 2704 |  |  |
| SMQRKTIHWKWT |  |  | 0.00109 | 145 |  |  |
| SILWKKHIYK | 0.0035 | 369 | 0.00093 | 124 |  |  |
| TADGLILTPWVT | 0.0001 | 15 | 0.00281 | 375 |  |  |
| RILWRRRRYH | 0.0009 | 95 | 0.00044 | 59 |  |  |
| SRLWRRRIYH | 0.009 | 985 | 0.014 | 1900 |  |  |
| SIVWKRRIYR | 0.005 | 541 | 0.00216 | 289 |  |  |
| SVLWRKRIYR | 0.0037 | 391 | 0.00143 | 191 |  |  |
| SLLWKRRMMK | 0.0001 | 11 |  |  |  |  |
| TQYWKRRIYN | 0.007 | 748 | 0.00241 | 322 |  |  |
| SVRWKRRDYR | 0.0046 | 492 | 0.007 | 903 |  |  |
| STYWKSRIYT | 0.0002 | 23 |  |  |  |  |
| SVLWKRRIAK | 0.010 | 1112 | 0.011 | 1441 |  |  |
| SQRYKQRCYK | 0.0017 | 182 | 0.0012 | 160 |  |  |
| SMLWGRRIYR | 0.0016 | 168 | 0.00036 | 48 |  |  |
| TMLWKRRIHA | 0.003 | 323 | 0.00136 | 181 |  |  |
| TQRWKCRLYR | 0.0001 | 12 |  |  |  |  |
| SQLYKRRIYQ | 0.0003 | 37 | 0.00027 | 36 |  |  |
| SMKRQFITRHWT |  |  | 7e-5 | 9 |  |  |
| SMLFKRRIYR | 0.0001 | 15 |  |  |  |  |

| Sequence | Library fraction (IRAK4; IRAK4 selection pulldown (+)) | Raw reads (IRAK4; IRAK4 selection pulldown (+)) | Library fraction (IRAK4; IRAK4 selection pulldown (-)) | Raw reads (IRAK4; IRAK4 selection pulldown (-)) | Library fraction (TLR10) | Raw reads (TLR10) |
| --- | --- | --- | --- | --- | --- | --- |
| TQRVRNRCYK | 0.013 | 1424 | 0.00437 | 584 |  |  |
| TQRWKHRLYK | 0.0006 | 68 | 0.00032 | 43 |  |  |
| SQLCHRRIYK | 0.0001 | 12 |  |  |  |  |
| RLCWKRRNWT | 0.0004 | 47 | 0.00044 | 59 |  |  |
| RVLWKKRNYA | 0.0004 | 46 | 0.00019 | 26 |  |  |
| SLLWKRRICR | 0.0006 | 65 | 0.00016 | 21 |  |  |
| SMLWRRRKYA | 0.0001 | 16 | 7e-5 | 10 |  |  |
| SLLWKRRIMK | 0.180 | 19248 | 0.066 | 8762 |  |  |
| SLRWKRRIWS |  |  | 9e-5 | 12 |  |  |
| SQRWRNRNYR | 0.013 | 1364 | 0.010 | 1401 |  |  |
| STLWNKKIYK | 0.0005 | 54 | 0.00019 | 26 |  |  |
| SQLWNRRLYK | 0.0009 | 93 | 0.00059 | 79 |  |  |
| RQRWRSRDYA |  |  | 8e-5 | 11 |  |  |
| SMKRQFITWRWT |  |  | 0.00015 | 20 |  |  |
| SIFWRRRIYK | 0.002 | 228 | 0.00048 | 64 |  |  |
| STRWKNRIYR | 0.004 | 433 | 0.003 | 390 |  |  |
| TQRWKRRNYT | 0.0013 | 136 | 0.0006 | 80 |  |  |
| SLLWKRRVYC | 0.0007 | 78 | 0.00057 | 76 |  |  |
| SMLFKRRVYK | 0.0001 | 10 |  |  |  |  |
| TMLWKRRLFR | 0.0001 | 9 |  |  |  |  |
| ALLWRRRNYH | 0.0006 | 61 | 0.00021 | 28 |  |  |
| SIMWKRRVFK | 0.0001 | 9 | 8e-5 | 11 |  |  |
| GPLLWNTRIYC | 0.0001 | 14 |  |  |  |  |
| SRIIYMNQSIRG |  |  |  |  | 0.00043 | 51 |
